Data as given in patent US20140248291A1, “Modulation of Cellular Migration” (THE UAB RESEARCH FOUNDATION, priority 2011, published 2014).

How the values were obtained:
D54-MG cells = test: calcium imaging (Fura-2) of D54-MG cells after neuroligands; type: cell-based, human
Experimental: D54-MG cells were plated on 35-mm glass bottom dishes (MatTek, Corp., Ashland, Mass.) at ˜100×10^3 per dish and cultured for 2 days. pTRIPZ transfected cells, after stable selection, were plated at a density of ˜20×10^3 per dish and treated with […] doxycycline for 4 to 5 days to allow for sufficient protein knockdown. All cells were loaded in serum-free culture medium for 45 min with the ratiometric Ca^2+ dye Fura-2-acetoxymethylester (5 μmol/L; TEFLABS, Austin, Tex.) reconstituted in 20% wiv pluronic acid in DMSO (Invitrogen, Carlsbad, Calif.). Cells were rinsed with serum-free medium and allowed to rest in 7% serum-containing medium for 45 min at 37° C. The glass-bottom dishes were placed in an environmental chamber mounted on an inverted microscope. Cells were allowed to equilibrate in the chamber for 15 min before calcium images were collected. Following equilibration, recordings were obtained with an Olympus Disk Spinning Unit (DSU) fluorescent imaging microscope where cells were alternately excited at 340 and 380 nm using an x-cite illumination light source. Emitted light was collected at >520 nm. Images were digitized online using Slidebook 4.2 software (Intelligent Imaging Innovations, Denver, Colo.), and 340:380 nm ratios were obtained every 15 seconds. Following a 5 minute baseline recording every 15 seconds, BK was applied to the cells and imaging continued every 15 seconds for 30 or 60 minutes. In a subset of experiments, BK antagonists, HOE-140 and Bradyzide were applied to the cells. These experiments were repeated at least three times and data were pooled for statistical analysis.
Glioma cells respond to environmental clues as they invade the brain. It has been previously shown that the exposure of glioma cells to certain neuroligands induces increase in intracellular calcium concentrations. In this series of experiments, we investigated Ca^2+-responses in cultured D54-MG glioma cells, after addition of acetylcholine (ACh), ATP or BK. Glioma cells were loaded with the ratiometric Ca^2+-dye FURA2-AM, and imaged over 30 min.

D54-MG-GFP glioma cells = test: Transwell migration assay; type: cell-based, human; settings: 5 h, neuroligand at bottom of filter
Experimental: The day before the experiment was performed, ˜70% confluent dishes of cells were prepared. Transwell migration Fluoroblock cell culture inserts (BD Biosciences, San Jose, Calif.) with 8 μm pores were coated overnight with Vitronectin (BD Biosciences, San Jose, Calif.) at a concentration of 5 μg/ml in PBS. The following day, inserts were blocked with 1% fatty acid-free bovine serum albumin for 1 h. Inserts were then washed two times in PBS, and 400 μl of Migration Assay Buffer (MAB, 0.1% fatty acid-free bovine serum albumin in serum-free media) was added to the bottom of each well. Cells were rinsed once in PBS and were lifted off the dish by the addition of 0.5 mm EGTA. Cells were rinsed twice by centrifugation and resuspended in MAB and counted. Forty thousand cells were plated on the top of each filter and allowed to adhere for 30 min before drug was added. When BK+/−antagonists was added to the filters, it was added only to the bottom of the filter for chemotaxis. For migration assay, D54-EGFP MG cells were allowed to migrate for 5 hours, washed with PBS, fixed with 4% paraformaldehyde 15 minutes at room temperature, washed thrice and counterstained with DAPI for 5 minutes at room temperature. Invasion assay was performed similarly. Matrigel cell cultured inserts (BD Biosciences, San Jose, Calif.) with 8 μm pores were pretreated Vitronectin and blocked as described above. […] The number of nuclei that migrated through pores was counted. All counts per treatment were averaged and SE values were calculated. […]
To investigate the hypothesis that BK promotes glioma migration in vitro, we used Transwell migration assay which conveniently permit examination of cell migration across a membrane barrier with 8 μm pores towards vitronectin, a chemo-attractant extracellular matrix protein. This frequently used assay allows a quantitative study of drug effects with regards to drugs acting as motogens or as chemo-attractants. […]

B2R = B2R (Homo sapiens, UniProt P30411); settings: cited from earlier work
[1] = target: bradykinin-2-receptor (B2R), human, as expressed on glioma cells (D54-MG, D54-MG-GFP, U251-MG) (human) (UniProt P30411); test: cell-based or functional assay
Chain of bradykinin-2-receptor (B2R), human, as expressed on glioma cells (D54-MG, D54-MG-GFP, U251-MG) (human) (P30411 whole entry): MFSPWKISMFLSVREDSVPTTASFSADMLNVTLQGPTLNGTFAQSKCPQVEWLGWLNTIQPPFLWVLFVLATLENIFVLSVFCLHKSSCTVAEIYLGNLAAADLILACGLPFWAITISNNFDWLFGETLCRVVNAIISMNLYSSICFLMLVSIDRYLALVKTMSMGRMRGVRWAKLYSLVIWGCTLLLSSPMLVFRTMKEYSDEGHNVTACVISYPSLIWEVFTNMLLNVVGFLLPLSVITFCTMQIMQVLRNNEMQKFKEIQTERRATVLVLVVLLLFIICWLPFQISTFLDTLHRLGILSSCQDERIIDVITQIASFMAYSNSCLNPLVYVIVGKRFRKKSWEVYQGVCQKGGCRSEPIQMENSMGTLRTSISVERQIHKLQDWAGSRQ

Chain of B2R (P30411 whole entry, species assumed): as the sequence (P30411 whole entry) above

Compound: CC(=O)OCC[N+](C)(C)C [ACh, acetylcholine]
- average peak of Ca2+ response (D54-MG cells; 50 μM ACh): 0.23±0.04
- cells responded (sustained rise in intracellular calcium) (D54-MG cells; 50 μM ACh, of 128 cells imaged): 116

Compound: Nc1ncnc2c1ncn2[C@@H]1O[C@H](COP(=O)(O)OP(=O)(O)OP(=O)(O)O)[C@@H](O)[C@H]1O [ATP]
- average peak of Ca2+ response (D54-MG cells; 100 μM ATP): 0.45±0.05
- cells responded / cells imaged (D54-MG cells; 100 μM ATP): 87/146
- effect on D54-MG cell migration (D54-MG-GFP glioma cells): failed to alter glioma migration

Compound: N=C(N)NCCC[C@@H](N)C(=O)N[C@@H](CCCNC(=N)N)C(=O)N1CCC[C@H]1C(=O)N1C[C@H](O)C[C@H]1C(=O)NCC(=O)N[C@@H](Cc1cccs1)C(=O)N[C@@H](CO)C(=O)N1Cc2ccccc2C[C@@H]1C(=O)N1[C@H](C(=O)N[C@@H](CCCNC(=N)N)C(=O)O)C[C@@H]2CCCC[C@@H]21 [Icatibant]
- B2R antagonism (B2R): potent antagonist

Compound: HOE-140 (D-Arg-[Hyp3, Thi5, D-Tic7, Oic8]bradykinin) (peptide)
- Ca2+-response of D54-MG cells to BK in the presence of HOE-140: average peak [1]: 0.15
- Ca2+-response of D54-MG cells to BK in the presence of HOE-140: cells responded [1]: 22 of 162 cells
- directionality of D54-MG cells in a BK concentration gradient in the presence of HOE-140 [1]: 8 of 15 cells
- rat brain slice invasion with BK and HOE-140: cells migrated up to 15 µm [1]: 25.7%
- rat brain slice invasion with BK and HOE-140: cells migrated up to 20 µm [1]: 15.4%
- rat brain slice invasion with BK and HOE-140: cells migrated up to 25 µm [1]: 6.4%
- rat brain slice invasion with BK and HOE-140: cells remaining on the top of the slice [1]: 47.5%
- rat brain slice invasion with HOE-140 alone: cells migrated up to 15 µm [1]: 29.8%
- rat brain slice invasion with HOE-140 alone: cells migrated up to 20 µm [1]: 14.4%
- rat brain slice invasion with HOE-140 alone: cells migrated up to 25 µm [1]: 3.5%
- rat brain slice invasion with HOE-140 alone: cells on top of the slice [1]: 51.9%
